We go through 18 sequences from the supplement of paper PMC9170038.

This data set has as its system MS2 coat protein. The data set is described as follows: apparent KD of MS2 coat protein; higher = weaker reporter binding. As to conditions: Eterna round: R107. On the procedure: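 RNA-MaP round R107: designed RNA switches with theophylline, tryptophan, arginine or FMN aptamers are transcribed on-chip within common flanks. They are titrated with SNAP-549-labelled MS2 coat protein in RNA-MaP buffer (100 mM Tris pH 7.5, 80 mM KCl, 4 mM MgCl2), without ligand or with the indicated ligand. Median apparent KD per design.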

Setting [1] is: input ligand: theophylline 20 uM.
Setting [2] is: input ligand: theophylline 2 mM.
Where [3] appears, read: input ligand: tryptophan 2.4 mM.

On to “CAUAUAUAUUGAAGGAGCGACAUGAGGAUCACCCAUGUCUACCACGUCGAAAGACGCUCAUGUCAGGUAGGUCGCAAUAUAUAUG [Astros-Eli-mod5]”, for which the “apparent KD of MS2 coat protein” value is, setting by setting: (input ligand: arginine 13.2 mM) 41.5 nM; (input ligand: none) 124 nM; under setting [1], 86.2 nM; under setting [2], 144 nM; under setting [3], 106 nM.
As for “GCAUCCUAGUCGGCCGCCACUGCAAUUGUAGUACUGCUACAUGAACAUGAGGAUCACCCAUGUAGCAGGACCGGGACUAGGAUGC [(Trp1)-(TM)''-(TM)'-(Ms2)-(Trp2)_Design10]”, the “apparent KD of MS2 coat protein” value (input ligand: arginine 13.2 mM) amounted to 44.4 nM, the “apparent KD of MS2 coat protein” value under setting [1] worked out at 78.5 nM and the “apparent KD of MS2 coat protein” value under setting [2] came to 68.5 nM.
In the case of “UGAGUUAGACAAAAGUCUAGCUCUGGUGAAGGAGCGUCCGAAAGGACAGGUAGGUCGCACCACAUGAGCAUCAGCCAUGUUCCUU [ArgAS 23 #OpenEnded #AlternativeMS2]”, the “apparent KD of MS2 coat protein” value came out at 17.9 nM (input ligand: arginine 13.2 mM); 17.3 nM (input ligand: none); 26.9 nM under setting [1]; 17.8 nM under setting [2]; 16.8 nM under setting [3].
With “UGUAUGUGAUCUGAUACCAGUCCAACUGGUAAAAUCUGAGGAUCACCCAGGUAAAAUUGGGACCCUUGGCAGCAGAUCGCAUACU”, the “apparent KD of MS2 coat protein” value (input ligand: arginine 13.2 mM) stood at 146 nM; the “apparent KD of MS2 coat protein” value (input ligand: none) was 175 nM; the “apparent KD of MS2 coat protein” value under setting [1] is 423 nM; the “apparent KD of MS2 coat protein” value under setting [2] was 544 nM; the “apparent KD of MS2 coat protein” value under setting [3] worked out at 235 nM.
Taken in the same sequence, the figures for “CCUAUGCAGUCGGCCGCCACUGAACAUGAGGAUCACCCAUGUAAUUAUAAAUAUGGUCCUAAAAUCAGGACCGGGACUGUAUAGG [Ex Tryptophan B 7]” were 122 nM, 64.2 nM, 144 nM, 296 nM and 237 nM.
In the same order, the values of “GCGGUACGUACUGAUACCAGAGACAUGAGGAUCACCCAUGUCCCAUGGUCAUGCCUCAGACUCCCUUGGCAGCAGGAUAAGUGCG [Exclusion Theophylline B GF3]” are 14.3 nM, 13.9 nM, 17.1 nM, 40.4 nM and 12.8 nM.
Consider “AACAUGAGGAUCACCCAUGUCUGAACUGAAGGAGCGCUAAAUAAGGCAGGUAGGUCGCGGAAUUUUGUAUAUAUAUAUAUAUGGG [9.F]”, for which the “apparent KD of MS2 coat protein” value by setting is: (input ligand: arginine 13.2 mM) 6.01 nM; (input ligand: none) 27.7 nM; under setting [1], 28.5 nM; under setting [2], 25 nM; under setting [3], 20.3 nM.
On to “CGAAUAUAGACGGCCGCCACUCUACAAACAUGAGGAUCACCCAUGUUCACAUAGUGGAAACACAUGAGGACCGGGUCAUAGGCUU [#19 Same State - Tryptophan B]”, for which the “apparent KD of MS2 coat protein” value is, setting by setting: (input ligand: arginine 13.2 mM) 23.2 nM; under setting [1], 26.9 nM; under setting [2], 23.9 nM.
Taken in the same sequence, the figures for “GGUUACUCUACGGCCGCCACUGUUAAAUAAUAAACCUGUACAUAAACAUGAGGAUCACCCAUGUACAGGACCGGGUAGUGUAACC [Tryptophan B 8]” were 27.6 nM, 41 nM and 35 nM.
Regarding “GCUGCCGUCGGUGAAAACUCCCAUGCAGAUACCAGCGCAUUCCGCCGCCCUUGGCAGCUGCAUACAUGAGGAUCACCCAUGUGUU [theeternabot_exclusion_MS2_Theo_A_48]”, the “apparent KD of MS2 coat protein” value reads like this: (input ligand: arginine 13.2 mM) 41.4 nM; under setting [1], 161 nM; under setting [3], 77.3 nM.
In the same order, the values of “AUCUACGUGGGUGAUACCAGCUGGUUAGUACACAUGAGGAUCACCCAUGUGCAGGCAGGCAGCCCUUGGCAGCACCGCAGUGGCU [theeternabot_sameState_MS2_Theo_B_36]” are 42.8 nM, 221 nM and 60.9 nM.
As to “UGCAUUAUACAUGGAUCACCCAUGUAGACACGAGGACCGGUACGGCCGCCACUCGGAAGAGGAAACAUGAGGAUCACCCAUGUGA [Try A SS t2]”, the “apparent KD of MS2 coat protein” value (input ligand: arginine 13.2 mM) came out at 42.7 nM, the “apparent KD of MS2 coat protein” value under setting [1] was 89.7 nM and the “apparent KD of MS2 coat protein” value under setting [2] was 105 nM.
In the case of “AAAAUCCUACUUGAGGAUCACCCAGGUGAAGGAGCGCCCGAAAGGGCAGGUAGGUCGCACCUGAGGAUCACCCUGGUAAACCUAA [ArgEX 8 #DoubleMS2 #OpenEnded]”, the “apparent KD of MS2 coat protein” value came out at 79.1 nM (input ligand: arginine 13.2 mM); 140 nM (input ligand: none); 135 nM under setting [1]; 185 nM under setting [2]; 152 nM under setting [3].
As to “AUAAGUAAUGUUACGUGUUUUAUUACAGAUACCAGACUAUACGUUGUCCCUUGGCAGCUGAAUUACAUGAGGAUCACCCAUGUUG [JR_ExcTheophyA_Sub004]”, the “apparent KD of MS2 coat protein” value reads like this: (input ligand: arginine 13.2 mM) 15.9 nM; under setting [1], 18.4 nM; under setting [3], 15.1 nM.
In the case of “CUAUGCAGGUCGGCCGCCACUACACACAUGAGGAUCACCCAUGUAGUUACUGGGUGAAGUGGCAGUAGGACCGGGACCUGCAUAC [Brourdmod10]”, the “apparent KD of MS2 coat protein” value reads like this: (input ligand: arginine 13.2 mM) 139 nM; (input ligand: none) 391 nM; under setting [1], 394 nM; under setting [2], 817 nM; under setting [3], 362 nM.
Turning to “UCUCACAUGAGGAUCACCCAUGUGUGCGGUCGAGGACCGGUACGGCCGCCACUCGAAUCCUUCCGCGAGAAGAUUGUACGACGGC [theeternabot_sameState_MS2_Trp_A_38]”, the “apparent KD of MS2 coat protein” value turned out to be 28.3 nM (input ligand: arginine 13.2 mM), 74.4 nM under setting [1] and 99.9 nM under setting [2].
On to “UAAUAAGUACCGGUCCUCAGAUCCUCAUGACGAGGACCGGUACGGCCGCCACUCGAAACAUGAGGAUCACCCAUGUAAUAAUAAU [|T'-M'-Trp-Ms2|_Design 1]”, for which the “apparent KD of MS2 coat protein” value is, setting by setting: (input ligand: arginine 13.2 mM) 17.9 nM; (input ligand: none) 22.2 nM; under setting [1], 29.4 nM; under setting [2], 36.9 nM; under setting [3], 18.3 nM.
For the sequence “CAAUAAGUAACUGAUACCAGUGUACUGACAUGAGGAUCACCCAUGUUGGGUUUUGUUGUACACCCUUGGCAGCAGAAUCUUAUUG [AstrosExyTheB#12]”, the “apparent KD of MS2 coat protein” value (input ligand: arginine 13.2 mM) was 44.2 nM, the “apparent KD of MS2 coat protein” value under setting [1] is 67.2 nM and the “apparent KD of MS2 coat protein” value under setting [3] worked out at 55.4 nM.
